A protein production outcome set (Wang et al. 2014)

Test: label from the status in PepcDB records

## MATKARVMYDFAAEPGNNELTVTEGEIITVTNPNVGGGWLEGKNNKGEQGLVPTDYVEILPNDGKDPFSC
  protein production: not failed

## MQDEYDAADLSLGVSDVTLVGEVLDTEAVRTFDRDDGSEGRVSNLVVGDETGRVRVTLWDDQADTATDLDAGAVVEIVDGYVREREGSLELHVGDTGAVTPVPDADVSFVPLEHHHHHH
  protein production: not failed

## MNWPNMPPGDRRWLWIGLTLPLCLLNGWVLLQILDYFQSPLRIFIIANLVAFILGYPVRWLQRYPRLKLPYAVALVLLTTAIILAVIGLLVIPKLVDQIRTVLQLLPHLNALGDRHLESLDNLSNQWEIPTNFRAWGRELSNEFPNQIRSITNQLINLLIWTAGSLVEAGFIFIMTVYLLLRGQTFWDGIFRWLPIDWRHKVRQRLRHSFQNYYIGQATVAALLGVSLIISLSIFQVPLALLFGMFVGFMAFFPFGGGTSIVLISIIASFQSIWLGIKVLAIATVVDQVVENGLAPKLLGRVTGVHPVWILLSLMIGAKVAGLLGILVAIPIASFIRDMLNDFI
  protein production: failed

## MTLDLFAPQPKTNLLPYDGDVEDYGCFISTAEAEQYFQYFLKHLAWRHDEARLYGKHFITPRQVAWYGDDHYRYAYSGIMRDSLPWDPQLLILKQQIEQTLAERFNSCLANLYQEGTQGMAWHSDGDMSLAKQTTIASLSLGATRKFCFRHLRTKEKIEMQLQSGQLIVMRGETQQHWQHAIMKSQKVIHPRINLTFRQFLLLEHHHHHH
  protein production: failed

## MDVQIHPMIIELAAFQAAKCGSVVGFGMVPSRNPSIKAASFFGIMVVTRSHVGESKDKGKEVEIAEPIESLILWLEELVAKQNKAMMRPMSDMMGAISRSTSHKLHDEQSTRDWSLPRSSTSTDDRSGHPVYRRKNRYDQVRYDAHQHYGNLTRLGKIDISRLDGIGIKEWLFKVEEFFGVDFTLQI
  protein production: failed

## MIQAVFERAEDGELRSAEITGHAESGEYGLDVVCASVSTLAINFINSIEKFAGYEPILELNEDEGGYLMVEIPKDLPSHQREMTQLFFESFFLGMANLSENYSEFVQTRVITEN
  protein production: not failed

## MRTKILLLTFTLLSSFSVLSQGNDLEQGMYELNRGEFKAAIEQFRPLVNEGYAPAQYQMALVYLHGYSVRKDSMKALELFELSAAQNYPDAQFELALIYSDGKLVKQNLKKAFELTHKAANKDLPSAQFNLAVMYANGTGIKQDDFKASRWYQRAANQNYALAQFNLALLYSEGKGVEKSTELSYVWNTIASWNGYPNAEKSRLMDERDLSKLKIEKSIEKANDIYQKIRDQQEMKAKMAEKQNFY
  protein production: failed

## MSYIRLVTWNVDFDSPFNYERFTAIAEEVLGAKPGVVLFQEVSDLPFSSWQGEKEQSTITSARQHDSCYKVLLRRLEALYEPIVDLGLPSEQAYFVMAFVDRSKYRVHGYEYTEFENSSQGRGLLAIQLEPRDMCGDFKFRVLTSHLESGTACSEVRVQQMRQIAYEMLEGDTPAIFAGDTNFREKEKAGFEKEIAKAIGSEEMRLFDLFVEVGEPSHLRFTWDTRTNTNKVKELPPRFRPRARFDQVLFTRPFQANAMRLLGRERLGHAVFPSDHYGIYGELRF
  protein production: failed

## MTTTKDVPIDLKASGKTAADTSYSFSSDTKSVTVTGTKAALAKLKSLPVNVDVTNVDSTTTKTVDVSTSDEDGISSVSPTSVKVKITVKNDLEHHHHHH
  protein production: not failed

## MGSSHHHHHHSSGRENLYFQGMLLHSVQTPRGEILNVSEQEARDVFGASEQAIADARKATILQTLRIERDERLRACDWTQVQDVVLTADQKATWAKYRQALRDLPETVTDLSQIVWPQLPV
  protein production: not failed

## MFTMDDLNQMDTQTLTDTLGSIFEHSSWIAERSAALRPFSSLSDLHRKMTGIVKAADRETQLDLIKKHPRLGTKKTMSDDSVREQQNAGLGKLEQQEYEEFLMLNEHYYDRFGFPFILAVKGKTKQDIHQALLARLESERETEFQQALIEIYRIARFRLADIITEKGETQMKRTMSYGKGNVFAYRTYLKPLTGVKQIPESSFAGRDNTVVGVDVTCEIGGEAFLPSFTDGDNTLVVATDSMKNFIQRHLASYEGTTTEGFLHYVAHRFLDTYSHMDTITLTGEDIPFEAMPAYEEKELSTSRLVFRRSRNERSRSVLKAERSGNTITITEQYSEIMDLQLVKVSGNSFVGFIRDEYTTLPEDGNRPLFVYLNISWQYENTNDSYASDPARYVAAEQVRDLASTVFHELETPSIQNLIYHIGCRILARFPQLTDVSFQSQNHTWDTVVEEIPGSKGKVYTEPRPPYGFQHFTVTREDAEKEKQKAAEKCRSLKA
  protein production: failed

## MKSCSRSSSVRLCVRCTGLSLWCCIGHATSVIKSVRNMQSVIGNGYKRSPTGKESRMTPLTSDFLSSSVVFLSAAVIAVPLAQRAGLGSVLGYLLAGIAIGPWGLGLIRDVQAIMHFAEFGVVLLLFLIGLELNPKKLWNLRGPILGLGGAQVVVTTAVLSSVAYLLGVSWQSALVIGMALALSSTAIALRVIEEHGLTRTEAGQSGFAVLLFQDIAVIPMLALLPILAGNSSGDWLNALWMTGGIAALLLGGHFLLNPLFRYIALSGVRELFTVAALLLVVGIALLMQKVGLSMALGTFLAGVILAESEFRHELEIAIDPFKGLLLGLFFISVGMAVDVGLLLVKPLQIMLAVLGLVIVKGLVLYLLARLSGTVAKARSKMAAILSQGGEFAFVIFTAASAEGLLTASQVSFLLVVVSLSMVTTPLLLSAQKYWFARQLNIEENPLTPDVENKEPRVIIVGFGRFGQIVGRLLYANKIKVTILESDASQVRLLRKYGYKVFYGDATNLELLRAAGVEQAEALVVCTDDPEQVITIVELCQQHFPNLKLLARARSRVEAYQLMSLGVQNYTRETFLSALDLGRKALVQLGMHPYQAKRAEEHFHRLDKTMLKELLPQHNEDKQLELRAKEARTELEEIFSREMDSDQLSRRYWEKE
  protein production: failed

## MDSSLSQKFTLAYASLLGVGGLMGYLKRGSKISLVAGGGSAALFYYVYTELPGNPVLASSIGIVGSAALTGMMGSRYLRTRKVVPAGLVSVVSLVMTGAYLHGLIRSS
  protein production: failed

## MNYFIVEVSEQEVKREKEKARELRRSQWWKNRIARGICHYCGEIFPPEELTMDHLVPVVRGGKSTRGNVVPACKECNNRKKYLLPVEWEEYLDSLESEPSDGEGLEHHHHHH
  protein production: not failed

## MTEPCRIIGVLDNGAEGLTPQALAYLHAADLVIGAGRTLALFEAHLAEGAECRDLGGRLAQVPDWIAEARRNGKRVAVLATGDPLCHGIAGYLGNKLGREALEILPNVSTIQLACARLGLPWQDMAIGSVHSRDAGDWTPGAGPGHGLYGLLQKLRQADLMGVFTSPENGPDRIARMLRAEGLDEEFEMAIAERLLQADERIHGWLGIAEAAGQCFADPNVVLLRRRPCEREALFGLPDTRFRQRAPDKGLITKREVRAVSLARLALRPDSIVWDIGAGSGAVGLEAARLCPLGHVYAIEKNVEDFAIALSNRESLRVSNYTLVQAKAPRELDGWPDPHGVFIGGSGGELRELIQICLRRLRTGGWLVMNFATLENLAAAVDALKASGASWDVTQLQAARSRPILDMHRLQAENPVWIVCAQRENNE
  protein production: failed

## CVECRKPIGADSKEVHYKNRFWHDTCFRCAKCLHPLANETFVAKDNKILCNKCTTREDSPKCKGCFKAIVAGDQNVEYKGTVWHKDCF
  protein production: not failed

## MQPRFLGQLGLADVVTVANAALGFIAAAVAVFDTELAARLILLAAIADGLDGVIARFRGGTPVGPILDSLADVASFGVAPAVLVYALASGGEVTLDEPLAVAAVVVAALYVAMAVVRLGFYLLEDDGAPETVGVQTTLAATVLSVLHLAGVTDPAVFVAATAAFAYLMVASITYPELYARDALILGGLQACVVLFPTAFGRAFPRVLLVFALGYLLLAPVAYWRSTEGKRS
  protein production: failed

## MGHHHHHHSHMAFPSDATAEQGPILTKHGKNPVMELNEKRRGLKYELISETGGSHDKRFVMEVEVDGQKFQGAGSNKKVAKAYAALAALEKLFPDTPLALDANK
  protein production: failed

## MRLTDQKRESIVQAAIAEFGDRGFEITSMDRIAARAEVSKRTVYNHFPSKEELFAEMLQRLWNCAPPQSEVVYRPLVSLREQLLELLWGKMRNLTDSSFLDLARVVVGATIHSPERAQVWLARINEREETFSAWIRAAQKDGRLKPVDPGFAATQMHALLKSFAFWPQVTFNAALLTPQEQSNVVESALNMFLGWYEIPG
  protein production: not failed

## MFSQWVFLSVLALAVPSFAWAEDAVSDLAREQSKAEQGDKRGDELFAEFTRLRQAAETGEPQALFDFGAYFYQQQNYASAREWWGKAAAAGMVRAQIQLAMLYRDGDGGPQDKTEAARWFRKAAEQGDAAAQNEMGVLYWRGEGVDQDRVKAGTWFERAAASGSEDAETNLGWFYLDDSQGVYSATSDEEAALLDRYAGSREKAFQWFCKAATQGDARAQFKVGEAYWNGSGAGMNKLQARLWLEKAAQQQDADAIAWLESAANAAWYTRLENWIHAALDGELSGVADCSGAADRRHSGRGMEGAPSDPEAVEASAEDAQQAVEAASQ
  protein production: failed

## MKVDREKYGSEKIAKLKILEELKKENPNKKIIAIGNGNNDELLLKNADLGICVIGDEGAWSKTILSSDIVVKDINDALDLLLNENRLKATSRD
  protein production: failed

## MSDLQKLQRFSTCDISDGLLNVYNIPTGGYFPNLTAISPPQNSSIVGTAYTVLFAPIDDPRPAVNYIDSVPPNSILVLALEPHLQSQFHPFIKITQAMYGGLMSTRAQYLKSNGTVVFGRIRDVDEHRTLNHPVFAYGVGSCAPKAVVKAVGTNVQLKILTSDGVTQTICPGDYIAGDNNGIVRIPVQETDISKLVTYIEKSIEVDLLVSEDIKNGIPAKQAQNDRRSVLKKYI
  protein production: not failed

## MAELEKTFALIKPDAVRAGKAQEIMQLIELNGFTIIAKQKLQLTRARAEEFYGEHKGKEFFPKLVNFMTSGPIWALVLAKPGAILAWRALMGPTNVFKARAEQPKCLRALYGTDGTQNATHGSDSPISAAREIKFFFPTLSGDPTIYAEPTAAAEYITKRIQPALAKALAALAREKPSADKFEAITFVAGYLLQNNPNKPKV
  protein production: not failed

## MKRAVVVFSGGQDSTTCLIQALQDYDDVHCITFDYGQRHRAEIEVAQELSQKLGAAAHKVLDVGLLNELATSSLTRDSIPVPDYDANAQGIPNTFVPGRNILFLTLASIYAYQVGAEAVITGVCETDFSGYPDCRDEFVKALNQAIVLGIARDIRFETPLMWLNKAETWALADYYQQLDTVRYHTLTCYNGIKGDGCGQCAACHLRANGLAQYQKDAATVMASLKQKVGLR
  protein production: not failed

## RSRRFAHLQLFAHLELPCWARIRDLLNIGLPIGISILMEGGLFIVTTLLIGRFGTDEIAAHQIALSVAQLCFMIPMGVAEATTVRIGHAVGRCDLLVMRRVAWAGYAIVIGTQTLSASVLLLGYDVIVAAYTDDLVVASLASKLLLFAAIFQFPDGLQMLSSGVLRGMKDTRVPM
  protein production: failed

## MMLLQQFKKIITVLIQVLVIMGITYLGNVIQRYMHIPIAGSIVGLLLFFLLLQFKVIPAKWVNEGSNFFLTTMVFFFVPSVVGIMDVVPMINLNFILFFSMILLGTCCVALISGFIAEKMVKNKQDGNGVN
  protein production: failed

## MVRRTRAEMEETRATLLATARKVFSERGYADTSMDDLTAQASLTRGALYHHFGDKKGLLAAVVEQIDAEMDERLQAISDTAEDDWEGFRCRCRAYLEMALEPEIQRIVLRDARAVLGGASPDSQRHCVESMQRLIDNLIRQGVVAEADPQALASLIYGSLAEAAFWIAEGEDGNARLAQGVAALELLLRGLLVKPR
  protein production: not failed

## MTDPVFFAPSRRYTAAEVANLTGSVLVDSGQSDVSIEALAPASEGGANALVFVDGRRNSALMPSLRAAAVLCPAEFANKAPSSVAVLIHPRPQQAFALVGRLLFPTAATPGPMTSETGVSAHAHIDPTAHVEAGAIIEAGVVIGPGVSIGSGTVIAPNAVIGQSCQIGRDGYVGPGASIQYALIGNRVIIHGGARIGQDGFGFVGGAKGPERVPQIGRVVIQDDVEIGSNSTVDRGAMSDTIIGQGTKIDNLVQIAHNVRIGRNCIVAGLSGISGSVVVGDNVTMGGGVGLADHLTIGSGAKLAARSGFMSNVPAGEIWGGYPAQPMAEAMREIAMLRTMARARKQGKDNG
  protein production: failed
